The DeepSol protein solubility set

Test: soluble on expression in E. coli; label from the status in PepcDB or PDB records

Sequence | soluble on expression in E. coli
ASQKVEKTVIKNETGTISISQLNKNVWVHTELGSFNGEAVPSNGLVLNTSKGLVLVDSSWDDKLTKELIEMVEKKFQKRVTDVIITHAHASRIGGIKTLKERGIKAHSTALTAELAKKNGYEEPLGDLQTVTNLKFGNMKVETFYPGKGHTEDNIVVWLPQYNILVGGCLVKSTSAKDLGNVADAYVNEWSTSIENVLKRYRNINAVVPGHGEVGDKGLLLHTLDLLK | soluble
MQCSRALALRLILIAPNGTSVKTLLRPRLDESWEQFVRRRLATPIRRQRIACDRTQKEVADIVGVSHHSIQRWELAYVRSRPIAHIVWAQAHDFLLGLELIHALGRTPRRVSRAHHVHSGR | not soluble
GPGSMRRANEVAREMWAPSTWERRMSLAGQFTTFCCTHERPIKEESCAAFLMAIEVAPSTRPQYARMLRSMLEMDRTPLDMMIVGLQKKIAARSETKQARLLTKEEMNQLIRSRTDWKERVVLRLAWITASCWSEIEALIPNNFTLERDGALILDWSLAPKTARADPHRASRFVRIRGLDAFDTIKLCRTLQHSEKLTNITNAQVERALVPWNATAHSIKRGALRRAAQIVEAYNFNPHVISQLAMHVDPFDLPQNTVRYLGKHTTLLTQVSSLVAFL | not soluble
MIPKNIHLIFLRKDEPFPELFEKCKQEIQVNHPDWNIRLYNKDDAQDILNQDLPEYIEAYNAFYHNVQKADFLRLALVYLYGGFYMDLDMLSLKPLDELRKYNLVLGEEKIVCQAEQEALNLRYRLRIANYMFGGIPKHPFLHRIMDEMAERATIILKSQQEILDITGPGLLTDTYWDNYGMYTDITLLRNTDKRCRQPYHNEISCHFGDYAAHLHAGTWRTGILEHHHHHH | soluble
MAHHHHHHMKSHNLDLIKNQNFDKNHNFINYSELYKKYKEKYNVKSFNKLPVSTYTYPRYSKITNFDELKTELIYEKEINEIEEEYDDDDEQNNINNYDGNIEILFPMINEKENEDIKKKKTDNIYKSEKKSLRQRIYDGEVMFYEDYIEQLAVKDYEHFFKKPYEIKRKDEGGKNYFYGKKLEMNKEEDIYRKFYGFDDAYFLNKLQLKNKSPQKEKNKEEKQKKRNEEKILERQCGKKLSYEDKKFILNIIEENQLQDNSIYKYYMQNKCIFDKNLPEFKKKELLCGYIPDIILPANVRKVKHPKNCGVPLSSLHIYAQFIHELFKCPYIYNAIDVELGKYWKTNENELLNIMKSEKIKKGYKKDIYTATKEQLEKSSAKLKNLLKNDEVSDDTRKKFTINFKMPKKEKTNLVVSKGRYII | soluble
SLPLTMTVLILLLLPTGQAAPKDGVTRPDSEVQHQLLPNPFQPGQEQLGLLQSYLKGLGRTEVQLEHLSREQVLLYLFALHDYDQSGQLDGLELLSMLTAALAPGAANSPTTNPVILIVDKVLETQDLNGDGLMTPAELINFPGVALRHVEPGEPLAPSPQEPQAVGRQSLLAKSPLRQETQEAPGPREEAKGQVEARRESLDPVQEPGGQAEADGDVPGPRGEAEGQAEAKGDAPGPRGEAGGQAEAEGDAPGPRGEAGGQAEARENGEEAKELPGETLESKNTQNDFEVHIVQVENDEI | soluble
MASMTGGQQMGRGSMQNPSVTISVNANAGRHPINPAVYGLAYATTATLADLNVPLHRYGGNNTSRYNWQLNADNRGADWYFESIGEASSVAGERGDTFIANSQAAGAQAMITIPTIGWVARLGANRSKLASFSIAKYGAQSGNDWQWFPDAGNGVLTSGQNVTGNNPNDANTLVDSTFQQGWAQHLVSQWGTAAGGGLRYYILDNEPSIWFSTHRDVHPVGPTMDEIRDKMLDYGAKIKTVDPSALIVGPEEWGWSGYTLSGYDQQYGGLHGWSFMPDRNNHGGWDYLPWLLDQLRQNNLSTGRRLLDVFSVHYYPQGGEFGNDTSSAMQLRRNRSTRSLWDPNYIDETWINDKVQLIPRLKNWVSTYYPGTLTAITEYNWGAESHINGATTQADILGIFGREGLDMAARWTTPDTATPTYKAIKMYRNYDGNKSAFGDTSVTATAPNPDNVSAFAAVRSSDGALTVMVINKYLSGNTPATINLSNFTAQAQAQVWQLTAANTINHLSNVSLSGSSLSLTLPAQSVTLLVIPAST | soluble
MLTIEPPSATFPASGGSSTHTITSVNESRMAFKVKSSNNEHYRVRPVYGFVEARGKMKFEIIRLEGPVKDDKIMLQYAEVPADETDAQAPFKAGAQQGDVTILLKTN | not soluble
MSLSLFDMFKVGIGPSSSHTVGPMKAGKQFVDDLVEKGLLDNVTRVAVDVYGSLSLTGKGHHTDIAIIMGLAGNEPATVDIDSIPGFIRDVETRERLLLAQGRHEVDFPKDDGMRFHNGNLPLHENGMQIHAWHDDTVIYSKTYYSIGGGFIVDEEHFGQEATNEVTVPYPFKSAKEMLEYCNSTGLSLSGMVMQNELALHSKKEIEEYFGHVWQTMQACIDRGMNTEGVLPGPLRVPRRASALRRMLVSSDKLSSDPMNVIDWVNMFALAVNEENAAGGRVVTAPTNGACGIVPAVLAYYDHFIESVSPDIYTRYFLAAGAIGALYKMNASISGAEVGCQGEVGVACSMAAAGLAELLGASPEQVCVAAEIGMEHNLGLTCDPVAGQVQVPCIERNAIASVKAINAARMAMRRTSAPRVSLDKVIETMYETGKDMNAKYRETSRGGLAIKVQCDEGHHHHHH | soluble
MEILTLEQQKSFIKAIDGHKLEVLFLLALGTGLRLGELLGLKWFDIDFKKSNLTVKRTLQRTYFIDKTGNRELKVLEQGPKTSNSYRTVPIPKDVLNKLKEHKVNQNTDILKAGELYINNNYVFCNELGIPIDDKRPLRNLKSILNSLNIEPIKFHGLRKTYATRLFENDVPPKTVQVLMGHYDISITLNIYTQVMEDKKVEAVEKLDKIFSLEHHHHHH | soluble
MAHHHHHHMADTQPVPATVTSAHGAHAEAFGESFIVTLSSENLRVQLLSHGAALNSVQVRKPHPAASATASASATAEQDDEWLEVCLGYTNPEEALSADAVIGHTIGRYAGRIANGEFEIANTTYTLAKNFGPHNLHGGPVGFQHQEWKYLLSDGRDETGVAFHLVSPHMDQGFPGELFVTATYSIIKSAPVPTLKYVLQASLSDNTPVDMTVINLTNHAYWNLNGVPRPAAADAVAPLPRSIANHYLQLQSKYFAVTDELSIPNGDMRPVEGTPHDYSALRCVAEGMEATKEEGRDGGGYDDPVALETWDSTLREAALVYSPATKLRMQVCTTNPAIVVYTANHLPADASGSKGQRFQQHSAICLECQYFPNSPNVRAFPSTVLKKGEAYNETTIHAFQFMNADITPEEKLLRRQ | soluble
MSLDIHEGNLMPAKRKLTMRHIRQMLRLAGSGTSSREIAVMLGIARSTVQDNLKRAAMAGLSWALASGLTDDVLEAKLFVHPGVKRGQRLRQEPDWGPLSIELKKPGVTLLILWEEYRSAHPDGYGYSRFCELFRGFEKRLSPTMRQEHIAGDKVFVDYSGKKVPIVDRKTGEIREAELFLGVLGASSYCTRGRSVHLGELLRRAWIFQHLGNREGHHHHHH | soluble
MMLITTSHRPTRRTRSFGHDLERVIPNSLYLTRGKKTIQELLMEAYDRGYERLLIINVWKGNPLKMTFIKVHPEDWGYLGYLYLHGVKLQREMGFKGLNPIREDMPLVITTAKRVGLDHLAFAQVFSELTTGKFVPRGDKSLLSIADRYNTDVLAVIERHPRGIVINFYRLDITKDRPVGPLINVKIWIMEDGRRWDYKEAFGIKVPPRRREFEGKRGEGKNSDLEHHHHHH | not soluble
MSLARQVTAFNTGWQFKKGPFATDPMRAASQWDGKWETVEIPHTWNAMDMQVQSGSFYEGAGYYRKTQFFPHDLEGKRVFLRFEGVGACAEVYVNGKLAGTHKGGYSAFACEIGTALKLGAENEIIVKADNKARPDVIPVNQNLFGVYGGIYRPVWLIVTEQNNITVTDCASPGVYITQKDVSKKSADITVKVKLDNAGLQPAAVTLENTIYTQEGQKVGTHSRSFDLSPQGTQTYLSTFKLKNPHLWQGRKDPYLYKVVCRLMADGKVIDEVVQPLGVRKYEIVAGKGFFLNGEKYSMYGVTRHQDWWGLGSALKNEHHDFDLAAIMDVGATTVRFAHYQQSDYLYSRCDTLGLIIWAEIPCVNRVTGYETENAQSQLRELIRQSFNHPSIYVWGLHNEVYQPHEYTAALTRSLHDLAKTEDPDRYTVSVNGYGHMDHPVNLNADIQGMNRYFGWYEKKIQDIKPWVEQLEKDYPYQKLMLTEYGADANLAHQTEYLGDALNWGKPFYPETFQTKTHEYQWSIIKDHPYIIASYLWNMFDFAVPMWTRGGVPARNMKGLITFDRKTKKDSYFWYKANWSEEPVLYLTQREGHHHHHH | not soluble
MGSDKIHHHHHHMLRAELHVHSSFSDGRDGVRKILEAAVEKKLEVIAITDHDTVQGSLEAIDIVKEEHLPLKVLPGCEVTASTGHVLVYGITKDIEPRMSVEETCKIARELGGVCFLAHPFDFIRKGSVRLKDFKMVDGIETFNAKSYFNFLAKRYAKKLSKPEIAGSDAHSARAVGLAINYLPDEFDLLNALFHARFDGRRVSIRERLAFLRFRLNQRL | not soluble
MGSDKIHHHHHHMQHIIKTALQQTFNYKTNKSIYNILVGKKSHQTFFDACSQQQLSLYHSLPLLKYPSFELFLEKINEFNAEMEIMLHPRYTFESMGQTFQAIQLLVQTMSNTKQHVFHFVPISQNNKIQETVKIVYNYIKENQLQIDFENELHNLFKAITLKGPCYLHYYLQGYDEPMYTRQQVSLIEKLSQQQLFEYEMNNLVTMMFELESGEYTILSKIIMKPTLLNQTYITYTKLLEQFTMEDIAAQQQVKINTIEDHVLEILIKGYMSNYDDYVELEDQLQFLNFYQQHRGERLKFYKEQFDTLSYFQLKVLIVGFERGDLNVA | not soluble
HMSSGNASWFQAIKAKKLNTPPPKFEGSGVPDNENMKPSQQHGYWRRQARFKPGKGGRCPVPDAWYFYYTGTGPAADMNWGDTQDGIVWMAAKGADTKSRSNQGTRDPDKFDQYPLRFSDGGPDGNFRWDFIPL | soluble
MSNGNTDPVFDFEDALDQTEMAQLAVDELKKIPEVNTLFAERWLPAPFNLDDLAKLPEGTLGHVYAIEMKARGFDPYFYKKVPVVDDISYLKMLWRSTHDIYHVVAGFDTDGIGEIGLQAFVLAQTPIPISVMLVSFGMVMTSLYQPAKFQDLMAEIARGYSLGSHTPRKLIAQKWDQFWDVPVIEIRECLGMNTVKQRERALEHHHHHH | not soluble
MGSDKIHHHHHHMWIWQQADWPKFHWNTSSIDALLRQVYFNQGQLLGKQMLSHDDSLLTSDAALDTLLANIIHSSAIEGEKLNAASVRSSLAKKLGVTEDKPYPTTAQTDGLADIMLDALKNLETELTLERILGWHQQLFPQGYTLFNPVIGGTLRGDTPMQVVSGRIDKPTVHFEAPSRATLDAELSQFIEWFNASRQDLGLDPLIRAAITHLWFVTLHPLDDGNGRITRLLTDLALAQAEKRSIRFYAMSVSILARRQAYYDILESTQRGDVDITPWLVWFFETLNDCLLNAMADVSRTLSKTQYWQSVDQSLLSQEQAKVLNRMLDGDFELGINSSQYQKVAKVSRATATRHLAQMVEQRFLVKADAGGRSTRYLLPSGK | not soluble
MNNFKLHTPTRILFGKGAIVDLRDQIPQDARVLITYGGGSVKKTGVLAQVQEALKGLDVREFGGIEPNPSYETLMKAVQLVRDENITFLLAVGGGSVLDGTKFIAAAAQYTDGVDPWHILETGGTEIRSAIPMGSVLTLPATGSESNAGAVISRKTTGDKQAFHSSFVQPVFAVLDPVYTYTLPPRQVANGVVDAFVHTVEQYVTYPVNGKIQDRFAEGILLTLIEEGPKALQEPENYDVRANVMWAATQALNGLIGAGVPQDWATHMLGHELTAMHGLDHAQTLAIVLPALWNEKRDVKRAKLLQYAERVWNITDGSDDERIDAAIAATRRFFEQMGVPTHLSDYGLDGSTIPALLAKLEAHGCINLGENQDITLDVSRRIYEAAR | not soluble
